Experimental data reported in US20220023399A1, “BLOOD COMPONENT POTENTIATION OF LYTIC PROTEIN ANTI-BACTERIAL ACTIVITY AND METHODS AND USES THEREOF” (priority 2017, published 2022).

How the values were obtained:
[1] = tested on: staphylococci (strain not given); assay: Checkerboard analysis of PlySs2/CF-301 with AMPs, antimicrobial proteins and albumins in heat-inactivated human serum; type: cell-based, S. aureus; settings: in combination with PlySs2/CF-301
[2] = tested on: S. aureus (strain not given); assay: MIC analysis of various lysins, chimeric lysins and antibiotics in MHB and human serum; type: cell-based; settings: Table 14 (Example 2); for Fold decrease in MIC: human serum vs MHB
Procedure: To further evaluate the binding domain relevance to the serum component effect, various chimerics were constructed by replacing or swapping out one binding domain for another. Chimeric lysins having the Sal1 CHAP catalytic domain with ClyS binding domain, PlySs2 (CF-301) binding domain, or lysostaphin binding domain were assayed for MIC using MHB versus human serum. the results are depicted below in TABLE 14.

[3] = tested on: S. aureus (strain not given); assay: as above; type: cell-based; settings: Table 2; for Fold decrease in MIC: human serum vs MHB
[4] = tested on: S. aureus strain ATCC 700699; assay: Confocal/deconvolution microscopy of cell surface binding; settings: 0.25×MIC
S. aureus strain MW2 = assay: Fluorescence microscopy of binding after preincubation in different serum types; settings: 0.25×MIC
Procedure: The effect of preincubation of staphylococci with multiple different serum types and MHB on subsequent labeling with a 0.25×MIC amount of CF-301^RHD was also examined by fluorescence microscopy (FIG. 11).
Fluorescence microscopy: Binding of PlySs2 (CF-301) to the Bacterial Cell Surface in Different Serum Environments. Mid-log phase MRSA strain MW2 was suspended at 1×10^7 CFU/mL in either CAMHB or 100% serum from either human (Sigma-Aldrich), rabbit (Gibco), rat (BioreclamationIVT), or mouse (BioreclamationIVT) sources and incubated for 30 minutes at 37° C. An additional mouse serum sample was also tested, containing 40 mg/mL HSA (Albumin Biosciences). After the preincubation, bacteria were washed with 1× phosphate-buffered saline (PBS) and resuspended in 50 μl of PBS and attached to the surface of a poly-L-lysine-coated cover glass. The cells were washed and treated with CF-301^RHOD (2 μg/mL in PBS) for 10 minutes before washing and counterstaining with DAPI. Slides were mounted in 50% glycerol and 0.1% p-phenylenediamine in PBS, pH 8. Fluorescence microscopy was performed using a Nikon Eclipse E400 microscope, equipped with a Nikon 100×/1.25 oil immersion lens, and a Retiga EXi fast 1394 camera (QImaging). QCapture Pro version 5.1.1.14 software (QImaging) was used for image capture and processing.

B1: Serum albumin (Rat, from serum): rat serum albumin (protein, UniProt P02770 25-608, looked up)
Albumin: EAHKSEIAHRFKDLGEQHFKGLVLIAFSQYLQKCPYEEHIKLVQEVTDFAKTCVADENAENCDKSIHTLFGDKLCAIPKLRDNYGELADCCAKQEPERNECFLQHKDDNPNLPPFQRPEAEAMCTSFQENPTSFLGHYLHEVARRHPYFYAPELLYYAEKYNEVLTQCCTESDKAACLTPKLDAVKEKALVAAVRQRMKCSSMQRFGERAFKAWAVARMSQRFPNAEFAEITKLATDVTKINKECCHGDLLECADDRAELAKYMCENQATISSKLQACCDKPVLQKSQCLAEIEHDNIPADLPSIAADFVEDKEVCKNYAEAKDVFLGTFLYEYSRRHPDYSVSLLLRLAKKYEATLEKCCAEGDPPACYGTVLAEFQPLVEEPKNLVKTNCELYEKLGEYGFQNAVLVRYTQKAPQVSTPTLVEAARNLGRVGTKCCTLPEAQRLPCVEDYLSAILNRLCVLHEKTPVSEKVTKCCSGSLVERRPCFSALTVDETYVPKEFKAETFTFHSDICTLPDKEKQIKKQTALAELVKHKPKATEDQLKTVMGDFAQFVDKCCKAADKDNCFATEGPNLVARSKEALA
- ΣFICavg [1]: ≥1.16

B2: Sal1: anti-staphylococcal lysin, SEQ ID NO:5 (protein)
chain: MAKTQAEINKRLDAYAKGTVDSPYRIKKATSYDPSFGVMEAGAIDADGYYHAQCQDLITDYVLWLTDNKVRTWGNAKDQIKQSYGTGFKIHENKPSTVPKKGWIAVFTSGSYQQWGHIGIVYDGGNTSTFTILEQNWNGYANKKPTKRVDNYYGLTHFIEIPVKAGTTVKKETAKKSASKTPAPKKKATLKVSKNHINYTMDKRGKKPEGMVIHNDAGRSSGQQYENSLANAGYARYANGIAHYYGSEGYVWEAIDAKNQIAWHTGDGTGANSGNFRFAGIEVCQSMSASDAQFLKNEQAVFQFTAEKFKEWGLTPNRKTVRLHMEFVPTACPHRSMVLHTGFNPVTQGRPSQAIMNKLKDYFIKQIKNYMDKGTSSSTVVKDGKTSSASTPATRPVTGSWKKNQYGTWYKPENATFVNGNQPIVTRIGSPFLNAPVGGNLPAGATIVYDEVCIQAGHIWIGYNAYNGNRVYCPVRTCQGVPPNHIPGVAWGVFK
modifications: Staphylococcus
- Minimal inhibitory concentration, MHB [2]: 2 µg/mL
- Fold decrease in MIC [2]: 32
- Minimal inhibitory concentration, Human serum [2]: 0.06 µg/mL
- Minimal inhibitory concentration, MHB [3]: 2 µg/mL
- Fold decrease in MIC [3]: 32
- Minimal inhibitory concentration, Human serum [3]: 0.06 µg/mL

B3: CF-301^RHD: rhodamine-labeled PlySs2 (CF-301) (conjugate)
chain: MTTVNEALNNVRAQVGSGVSVGNGECYALASWYERMISPDATVGLGAGVGWVSGAIGDTISAKNIGSSYNWQANGWTVSTSGPFKAGQIVTLGATPGNPYGHVVIVEAVDGDRLTILEQNYGGKRYPVRNYYSAASYRQQVVHYITPPGTVAQSAPNLAGSRSYRETGTMTVTVDALNVRRAPNTSGEIVAVYKRGESFDYDTVIIDVNGYVWVSYIGGSGKRNYVATGATKDGKRFGNAWGTFK
- labeling of the staphylococcal cell wall ([4]; absence of the HSA pretreatment): no labeling was observed
- labeling of the staphylococcal cell wall ([4]; cells pretreated with HSA at 40 mg/mL): extensive labeling
- labeling of S. aureus strain MW2 (S. aureus strain MW2; mouse serum supplemented with HSA): restore high-level binding and fluorescence
- labeling of S. aureus strain MW2 (S. aureus strain MW2; preincubation with human serum or rabbit serum): extensive labeling
- labeling of S. aureus strain MW2 (S. aureus strain MW2; preincubation with rat serum, mouse serum or MHB alone): poorly labeled cells

B4: Lactoferrin (Bovine colostrum): lactoferrin, bovine colostrum (Sigma-Aldrich) (protein, UniProt P24627 20-708, looked up)
Lactotransferrin: APRKNVRWCTISQPEWFKCRRWQWRMKKLGAPSITCVRRAFALECIRAIAEKKADAVTLDGGMVFEAGRDPYKLRPVAAEIYGTKESPQTHYYAVAVVKKGSNFQLDQLQGRKSCHTGLGRSAGWIIPMGILRPYLSWTESLEPLQGAVAKFFSASCVPCIDRQAYPNLCQLCKGEGENQCACSSREPYFGYSGAFKCLQDGAGDVAFVKETTVFENLPEKADRDQYELLCLNNSRAPVDAFKECHLAQVPSHAVVARSVDGKEDLIWKLLSKAQEKFGKNKSRSFQLFGSPPGQRDLLFKDSALGFLRIPSKVDSALYLGSRYLTTLKNLRETAEEVKARYTRVVWCAVGPEEQKKCQQWSQQSGQNVTCATASTTDDCIVLVLKGEADALNLDGGYIYTAGKCGLVPVLAENRKSSKHSSLDCVLRPTEGYLAVAVVKKANEGLTWNSLKDKKSCHTAVDRTAGWNIPMGLIVNQTGSCAFDEFFSQSCAPGADPKSRLCALCAGDDQGLDKCVPNSKEKYYGYTGAFRCLAEDVGDVAFVKNDTVWENTNGESTADWAKNLNREDFRLLCLDGTRKPVTEAQSCHLAVAPNHAVVSRSDRAAHVKQVLLHQQALFGKNGKNCPDKFCLFKSETKNLLFNDNTECLAKLGGRPTYEEYLGTEYVTAIANLKKCSTSPLLEACAFLTR
- ΣFICavg [1]: ≥1.16

B5: Lactoferrin (Human milk): lactoferrin, human milk (Sigma-Aldrich) (protein, UniProt P02788 20-710, looked up)
Lactotransferrin: GRRRSVQWCAVSQPEATKCFQWQRNMRKVRGPPVSCIKRDSPIQCIQAIAENRADAVTLDGGFIYEAGLAPYKLRPVAAEVYGTERQPRTHYYAVAVVKKGGSFQLNELQGLKSCHTGLRRTAGWNVPIGTLRPFLNWTGPPEPIEAAVARFFSASCVPGADKGQFPNLCRLCAGTGENKCAFSSQEPYFSYSGAFKCLRDGAGDVAFIRESTVFEDLSDEAERDEYELLCPDNTRKPVDKFKDCHLARVPSHAVVARSVNGKEDAIWNLLRQAQEKFGKDKSPKFQLFGSPSGQKDLLFKDSAIGFSRVPPRIDSGLYLGSGYFTAIQNLRKSEEEVAARRARVVWCAVGEQELRKCNQWSGLSEGSVTCSSASTTEDCIALVLKGEADAMSLDGGYVYTAGKCGLVPVLAENYKSQQSSDPDPNCVDRPVEGYLAVAVVRRSDTSLTWNSVKGKKSCHTAVDRTAGWNIPMGLLFNQTGSCKFDEYFSQSCAPGSDPRSNLCALCIGDEQGENKCVPNSNERYYGYTGAFRCLAENAGDVAFVKDVTVLQNTDGNNNEAWAKDLKLADFALLCLDGKRKPVTEARSCHLAMAPNHAVVSRMDKVERLKQVLLHQQAKFGRNGSDCPDKFCLFQSETKNLLFNDNTECLARLHGKTTYEKYLGPQYVAGITNLKKCSTSPLLEACEFLRK
- ΣFICavg [1]: ≥1.16

B6: Lysozyme (Human, recombinant): human lysozyme, recombinant expressed in rice (protein, UniProt P61626 19-148, looked up)
Lysozyme C: KVFERCELARTLKRLGMDGYRGISLANWMCLAKWESGYNTRATNYNAGDRSTDYGIFQINSRYWCNDGKTPGAVNACHLSCSALLQDNIADAVACAKRVVRDPQGIRAWVAWRNRCQNRDVRQYVQGCGV
- ΣFICavg [1]: ≤0.05

B7: Lysozyme (Human neutrophil derived): lysozyme, human neutrophil-derived (protein, UniProt P61626 19-148, looked up)
Lysozyme C: KVFERCELARTLKRLGMDGYRGISLANWMCLAKWESGYNTRATNYNAGDRSTDYGIFQINSRYWCNDGKTPGAVNACHLSCSALLQDNIADAVACAKRVVRDPQGIRAWVAWRNRCQNRDVRQYVQGCGV
- ΣFICavg [1]: ≤0.056

B8: ClyS: chimeric lysin active against Staphylococci, without SH3-type binding domain; SEQ ID NO:4 (protein)
chain: METLKQAESYIKSKVNTGTDFDGLYGYQCMDLAVDYIYHVTDGKIRMWGNAKDAINNSFGGTATVYKNYPAFRPKYGDVVVWTTGNFATYGHIAIVTNPDPYGDLQYVTVLEQNWNGNGIYKTELATIRTHDYTGITHFIRPNFATESSVKKKDTKKKPKPSNRDGLNKDKIVYDRTNINYNMVLQGKSASKITVGSKAPYNLKWSKGAYFNAKIDGLGATSATRYGDNRTNYRFDVGQAVYAPGTLIYVFEIIDGWCRIYWNNHNEWIWHERLIVKEVF
modifications: Staphlyococcus
- Minimal inhibitory concentration, MHB [2]: 8 µg/mL
- Fold decrease in MIC [2]: 2
- Minimal inhibitory concentration, Human serum [2]: 4 µg/mL
- Minimal inhibitory concentration, MHB [3]: 8 µg/mL
- Fold decrease in MIC [3]: 2
- Minimal inhibitory concentration, Human serum [3]: 4 µg/mL
